# Test results from patent US12338268B2, “Compositions and methods for treating protein aggregation-associated diseases” (The Board of Trustees of the Leland Stanford Junior …, priority 2019, dated 2025).
# Legend:
# [1] = biological target: T1, mutant Huntingtin exon 1 (mHttQ51) (Homo sapiens, UniProt P42858, INS38QQQQQQQQQQQQQQQQQQQQQQQQQQQQQQQ); test: In vitro filter trap aggregation assay of mutant Huntingtin exon 1; format: biochemical; conditions: for mHttQ51 aggregation: 5× molar excess, 3 μM mHttQ51, filter trap, SDS-insoluble aggregates
# T1 construct: mutant Huntingtin exon 1 containing a pathogenic stretch of 51 glutamines (mHttQ51); GST (N, cleaved yes); made in house; host or cells: E. coli Rosetta 2(DE3) pLysS
# T1 sequence (P42858 with tags, fused parts or gaps with the stated changes limits assumed): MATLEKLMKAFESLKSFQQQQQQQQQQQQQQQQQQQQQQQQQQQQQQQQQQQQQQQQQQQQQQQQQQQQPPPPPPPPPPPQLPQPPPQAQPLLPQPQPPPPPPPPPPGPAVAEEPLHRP
# Protocol: (§1) Mutant Huntingtin and PolyQ51 aggregation reactions were performed at concentration 3 μM of mHttQ51, 0.044 Units/μl acTEV protease (Invitrogen, Carlsbad, CA, USA), and respective concentrations of Ovalbumin (Sigma) or purified NAC chaperone variants. Aggregation was conducted in TEV reaction buffer (Invitrogen) and incubated at 30° C. AtxQ78 was buffer exchanged into TEV reaction buffer using 7K MWCO Zeba Spin Desalting Columns (Thermo Fisher) to initiate aggregation. AtxQ78 aggregation reactions were performed at 30 μM of Ataxin-3 in reaction buffer (20 mM sodium phosphate pH 7.5, 25 mM NaCl, 6 mM MgCl2, 2 mM DTT, 5% (v/v) glycerol) and incubated at 37° C. Samples at varied time-points were then taken and combined in a 1:1 ratio with a 4% (w/v) SDS, 100 mM DTT solution, boiled for 5 min at 95° C., and stored at −20° C. Samples were then filtered through a 0.22 μm cellulose acetate membrane (Whatman) and washed with 0.1% (w/v) SDS. Membrane was probed using an S-tag antibody (Abcam) for mHttQ51 and PolyQ51, and with a His-tag antibody (Abcam) for AtxQ78.
# [2] = biological target: T2, full-length Ataxin-3 (AtxQ78) (Homo sapiens, UniProt P54252, INS305QQQQQQQQQQQQQQQQQQQQQQQQQQQQQQQQQQQQQQQQQQQQQQQQQQQQQQQQQQQQQQQQ); test: Filter trap aggregation assay of AtxQ78; format: biochemical; conditions: equimolar (1×) NAC, 37° C.
# T2 construct: full-length Ataxin-3 harboring a stretch of 78 glutamines (AtxQ78); made in house
# T2 sequence (P54252 with tags, fused parts or gaps with the stated changes): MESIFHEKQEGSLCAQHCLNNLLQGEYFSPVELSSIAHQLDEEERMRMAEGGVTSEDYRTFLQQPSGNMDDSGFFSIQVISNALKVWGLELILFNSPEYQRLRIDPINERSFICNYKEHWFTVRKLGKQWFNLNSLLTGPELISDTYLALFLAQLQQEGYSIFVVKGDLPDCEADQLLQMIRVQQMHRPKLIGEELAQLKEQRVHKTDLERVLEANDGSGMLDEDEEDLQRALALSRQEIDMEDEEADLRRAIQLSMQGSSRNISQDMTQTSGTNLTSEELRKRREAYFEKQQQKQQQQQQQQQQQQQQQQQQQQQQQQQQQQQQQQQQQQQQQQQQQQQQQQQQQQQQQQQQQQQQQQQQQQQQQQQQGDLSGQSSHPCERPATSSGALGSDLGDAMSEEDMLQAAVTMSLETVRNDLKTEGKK
# Protocol: as §1
# PolyQ35::YFP = PolyQ35::YFP aggregation in C. elegans overexpressing NAC (fluorescence microscopy, SDD-AGE); format: in vivo; conditions: overexpressed in body wall muscle cells (myo-3 promoter), day 3 of adulthood, fluorescence microscopy
# Description: NAC is a major ribosome-binding factor interacting broadly with nascent chains (del Alamo et al., 2011). However, its assumed chaperone function is poorly investigated. […] Although loss of NAC causes pleiotropic defects in C. elegans (Gamerdinger et al., 2015), this finding raises the possibility that NAC directly exerts a chaperone function on aggregation-prone proteins. In this case, overexpression of NAC should prevent aggregation of PolyQ proteins in vivo. Therefore, we used a C. elegans strain expressing 35 consecutive glutamine residues fused to YFP (PolyQ35::YFP) in body wall muscle cells. This PolyQ length is close to the aggregation threshold in C. elegans muscle cells, leading to progressive, age-dependent aggregation starting at day 2 of adulthood (Morley et al., 2002). We generated transgenic animals that overexpress FLAG-tagged α- and βNAC under the control of the muscle-specific myo-3 promoter. PolyQ aggregation was assessed at day 3 of adulthood by fluorescence microscopy as well as semi-denaturing detergent agarose gel electrophoresis (SDD-AGE), which detects high molecular weight oligomeric PolyQ species (Halfmann and Lindquist, 2008). […] This is evident by magnification of the head regions showing diffuse PolyQ35::YFP and less punctate PolyQ35::YFP structures when NAC was overexpressed (FIG. 1A, head region images). […] To directly test the potential chaperone function of NAC, we employed a peptide composed of 51 consecutive glutamines (PolyQ51) as a model substrate in a well-established in vitro aggregation assay. We initiated aggregation of PolyQ51 by cleaving a solubilizing GST tag with TEV protease and detected aggregates over time using a filter trap assay.
# Worms were cultured according to standard techniques with E. coli OP50 as food source (Brenner, 1974). Transgenic strains were generated using standard microinjection protocols (Mello and Fire, 1995). […]
# [3] = system: PolyQ35::YFP C. elegans worms; test: Paralysis assay; format: in vivo; conditions: overexpression; day 6 to 10 of adulthood
# Protocol: To analyze the percentage of paralyzed worms, 100 semi-synchronized (timed egg lay for 5 h) young adult worms of each strain were placed on a plate containing 150 μM 5-fluorodeoxyuridine. Screening of paralyzed worms was started at day 6 of adulthood.
# Aβ40 = biological target: T3, Aβ40 (Homo sapiens, UniProt P05067); test: Thioflavin T fluorescence assay of Aβ40 aggregation; format: biochemical; conditions: equimolar NAC variant and Aβ40 (32 μM FIG. 4C; 18 μM FIG. 12C), 37° C., 20 h
# T3 construct: Aβ40 peptide was expressed and purified as described previously; made in house; host or cells: E. coli BL21 (DE3)
# Protocol: Lyophilized Aβ40 was resuspended at 320 μM in 20 mM sodium phosphate pH 7.4, 0.2 mM EDTA, 0.01% (w/v) sodium azide and stored on ice. The NAC proteins were diluted to 100 μM in storage buffer (20 mM sodium phosphate pH 7.5, 25 mM NaCl, 6 mM MgCl2, 2 mM β-mercaptoethanol, 5% (v/v) glycerol) and buffer exchanged into 20 mM sodium phosphate pH 7.4, 0.2 mM EDTA, 0.01% (w/v) sodium azide, 1× complete mini protease inhibitor, EDTA free (Roche) by means of ZebaSpin 7 kDa MWCO spin columns (Thermo Scientific). Samples were prepared that contained equimolar concentrations of Aβ40 and NAC variants. Thioflavin T was added to a final concentration of 10 μM. The samples were transferred to a 96 well half-area clear bottom microplate (Corning GmbH, Wiesbaden, Germany), with 95 μL of sample in each well. The fluorescence (excitation: 440 nm, emission: 480 nm) was measured using a BMG Omega plate reader (BMG Labtech) incubating samples at 37° C., quiescently.
molecule,measurement,setting,value
"ovalbumin: molar equivalent ovalbumin control protein (Sigma) (protein, UniProt P01012 2-386, looked up) Ovalbumin: GSIGAASMEFCFDVFKELKVHHANENIFYCPIAIMSALAMVYLGAKDSTRTQINKVVRFDKLPGFGDSIEAQCGTSVNVHSSLRDILNQITKPNDVYSFSLASRLYAEERYPILPEYLQCVKELYRGGLEPINFQTAADQARELINSWVESQTNGIIRNVLQPSSVDSQTAMVLVNAIVFKGLWEKAFKDEDTQAMPFRVTEQESKPVQMMYQIGLFRVASMASEKMKILELPFASGTMSMLVLLPDEVSGLEQLESIINFEKLTEWTSSNVMEERKIKVYLPRMKMEEKYNLTSVLMAMGITDVFSSSANLSGISSAESLKISQAVHAAHAEINEAGREVVGSAEAGVDAASVSEEFRADHPFLFCIKHIATNAVLFFGRCVSP",mHttQ51 aggregation,[1],little effect
C. elegans NAC: purified recombinant C. elegans nascent polypeptide-associated complex (protein) chain 1: MTGSTETRQKEVKEPQVDVSDDSDNEAVEQELTEEQRRVAEAAGLGDHIDKQAKQSRSEKKARKLFSKLGLKQVTGVSRVCIRKSKNILFVINKPDVFKSPGSDTYIIFGEAKIEDLTQHAQMSAIENLKPTREAPQLKTVEEDENEDVEEDSTGIEEKDIELVISQANTTRNKAIRALKEADNDIVNAIMSLTM chain 2: MDSKAIAERIKKLQAQQEHVRIGGKGTPRRKKKVIHKTAAADDKKLQSNLKKLSVTNIPGIEEVNMIKDDGTVIHFNNPKVQTSVPANTFSVTGSADNKQITEMLPGILNQLGPESLTHLKKLANNVTKLGPDGKGEDEDVPELVGDFDAASKNETKADEQ,AtxQ78 aggregation,[2],prevented AtxQ78 aggregation but was slightly less effective than the human isoform
same,mHttQ51 aggregation,[1],to a lesser extent
RRK/AAA-NAC: NAC with mutation in the conserved ribosome-binding motif in the N-terminus of βNAC; ribosome-binding deficient (protein) chain 1: MTGSTETRQKEVKEPQVDVSDDSDNEAVEQELTEEQRRVAEAAGLGDHIDKQAKQSRSEKKARKLFSKLGLKQVTGVSRVCIRKSKNILFVINKPDVFKSPGSDTYIIFGEAKIEDLTQHAQMSAIENLKPTREAPQLKTVEEDENEDVEEDSTGIEEKDIELVISQANTTRNKAIRALKEADNDIVNAIMSLTM chain 2: MDSKAIAERIKKLQAQQEHVRIGGKGTPAAAKKVIHKTAAADDKKLQSNLKKLSVTNIPGIEEVNMIKDDGTVIHFNNPKVQTSVPANTFSVTGSADNKQITEMLPGILNQLGPESLTHLKKLANNVTKLGPDGKGEDEDVPELVGDFDAASKNETKADEQ,mHttQ51 aggregation,[1],delayed mHttQ51 aggregation similar to wild-type NAC
same,PolyQ35::YFP aggregation,PolyQ35::YFP,suppressed PolyQ35::YFP aggregation similarly to WT-NAC
same,motility / age-associated paralysis of PolyQ35::YFP-expressing worms,[3],still improved motility during aging albeit less effective than WT-NAC
same,Aβ40 aggregation (ThT fluorescence),Aβ40,fully suppressed Aβ40 aggregation
ApiCCT1: the 140 amino acid apical domain of CCT1 (protein) MVPGYALNCTVASQAMPKRIAGGNVKIACLDLNLQKARMAMGVQINIDDPEQLEQIRKREAGIVLERVKKIIDAGAQVVLTTKGIDDLCLKEFVEAKIMGVRRCKKEDLRRIARATGATLVSSMSNLEGEETFESSYLGLCDEVVQAKFSDDECILIKGTSKAAAAALEHHHHHH,polyQ aggregation of huntingtin exon1,[1]; system with purified components,specifically and efficiently inhibits polyQ aggregation of huntingtin exon1
